Laboratory results: US20050074865

Target: recombinant human TNFα (RDI) (UniProt P01375)
Sequence (P01375 77-233): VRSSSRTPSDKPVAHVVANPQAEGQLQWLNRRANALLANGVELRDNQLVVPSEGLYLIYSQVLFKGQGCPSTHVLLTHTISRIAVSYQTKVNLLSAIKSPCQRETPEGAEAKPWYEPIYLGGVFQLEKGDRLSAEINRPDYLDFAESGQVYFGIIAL

Sequence of Enterokinase (P98072 2-800): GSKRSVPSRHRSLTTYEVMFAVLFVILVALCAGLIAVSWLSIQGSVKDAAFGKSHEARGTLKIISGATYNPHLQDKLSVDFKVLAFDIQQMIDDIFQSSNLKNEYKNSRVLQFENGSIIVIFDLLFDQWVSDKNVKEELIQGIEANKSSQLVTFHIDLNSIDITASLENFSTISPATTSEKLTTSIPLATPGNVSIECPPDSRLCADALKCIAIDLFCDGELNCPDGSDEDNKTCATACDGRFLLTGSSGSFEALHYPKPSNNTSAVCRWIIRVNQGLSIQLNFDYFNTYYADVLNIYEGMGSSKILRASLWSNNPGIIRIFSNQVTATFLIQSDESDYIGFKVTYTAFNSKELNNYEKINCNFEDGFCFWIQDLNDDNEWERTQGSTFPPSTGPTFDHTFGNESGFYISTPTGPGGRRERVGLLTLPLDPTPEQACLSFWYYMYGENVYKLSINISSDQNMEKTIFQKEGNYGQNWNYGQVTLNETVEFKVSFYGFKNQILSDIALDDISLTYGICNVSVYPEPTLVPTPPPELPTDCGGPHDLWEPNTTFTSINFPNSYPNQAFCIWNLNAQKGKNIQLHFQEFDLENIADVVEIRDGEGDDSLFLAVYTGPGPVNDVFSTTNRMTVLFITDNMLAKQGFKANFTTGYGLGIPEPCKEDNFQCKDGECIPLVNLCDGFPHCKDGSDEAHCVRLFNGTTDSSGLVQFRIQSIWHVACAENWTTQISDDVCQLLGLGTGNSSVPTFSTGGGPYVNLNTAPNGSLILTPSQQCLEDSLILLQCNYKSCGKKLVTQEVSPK
Sequence of Enterokinase (P98072 801-1035): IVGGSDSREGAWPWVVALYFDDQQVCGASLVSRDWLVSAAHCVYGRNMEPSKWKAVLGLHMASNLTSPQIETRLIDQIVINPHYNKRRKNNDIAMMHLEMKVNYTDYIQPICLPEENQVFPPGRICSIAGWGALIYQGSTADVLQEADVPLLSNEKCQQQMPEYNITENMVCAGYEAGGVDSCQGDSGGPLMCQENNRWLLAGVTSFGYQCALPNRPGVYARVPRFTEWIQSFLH

| Substance | inactivation of TNFα bioactivity, L929 cytotoxicity bioassay after overnight digestion | proteolytic activity towards TNFα and effect in the L929 bioassay |
| --- | --- | --- |
| ADAM 10 | ADAM 10 (column: Proteases that did not inactivate TNF) |  |
| Enterokinase | Enterokinase (column: Proteases that did not inactivate TNF) | enterokinase has no proteolytic activity towards TNFα and no effect in the L929 bioassay |
| Furin | Furin (column: Proteases that did not inactivate TNF) |  |
| Kallikrein5 | Kallikrein5 (column: Proteases that did not inactivate TNF) |  |
| MMP3 | MMP3 (column: Proteases that did not inactivate TNF) |  |
| MT5-MMP | MT5-MMP (column: Proteases that did not inactivate TNF) |  |
| Plasmin | Plasmin (column: Proteases that did not inactivate TNF) |  |
| Urokinase | Urokinase (column: Proteases that did not inactivate TNF) |  |
